Patent US20210101998A1
Where two headings read alike, the source gives them in different places.

Tests used:
[1] = target: endogenous TFPI in human plasma (human), P10646; assay: cell-based or functional assay
[2] = target: endogenous TFPI in human plasma (human), P10646; assay: cell-based or functional assay; remark: listed apart in the source

B1: 2A8-200 (antibody, human IgG1, lambda)
light: DIELTQPPSVSVAPGQTARISCSGDNLRNYYAHWYQQKPGQAPVVVIFYDVNRPSGIPERFSGSNSGNTATLTISGTQAEDEADYYCQSWWDGVPVFGGGTKLTVLGQPKAAPSVTLFPPSSEELQANKATLVCLISDFYPGAVTVAWKADSSPVKAGVETTTPSKQSNNKYAASSYLSLTPEQWKSHRSYSCQVTHEGSTVEKTVAPTECS
heavy: QVQLVESGGGLVQPGGSLRLSCAASGFTFRSYGMDWVRQAPGKGLEWVSSIRGSRSSTYYADSVKGRFTISRDNSKNTLYLQMNSLRAEDTAVYYCARLYRYWFDYWGQGTLVTVSSASTKGPSVFPLAPSSKSTSGGTAALGCLVKDYFPEPVTVSWNSGALTSGVHTFPAVLQSSGLYSLSSVVTVPSSSLGTQTYICNVNHKPSNTKVDKKVEPKSCDKTHTCPPCPAPEAAGAPSVFLFPPKPKDTLMISRTPEVTCVVVDVSHEDPEVKFNWYVDGVEVHNAKTKPREEQYNSTYRVVSVLTVLHQDWLNGKEYKCKVSNKALPAPIEKTISKAKGQPREPQVYTLPPSREEMTKNQVSLTCLVKGFYPSDIAVEWESNGQPENNYKTTPPVLDSDGSFFLYSKLTVDKSRWQQGNVFSCSVMHEALHNHYTQKSLSLSPG
- Dilute PT EC50 [1]: 1 nM

B2: 4D8.b1 (antibody, mouse IgG1, kappa)
light: DIVMTQSHKFMSTSVGDRVSITCKASQDVHTAVAWYQQKPGQSPRLLIYWASTRHTGVPDRFTGCGSGTDYTLTISSVQAEDLALYYCQQHYTTPYTFGGGTKLEMKADAAPTVSIFPPSSEQLTSGGASVVCFLNNFYPKDINVKWKIDGSERQNGVLNSWTDQDSKDSTYSMSSTLTLTKDEYERHNSYTCEATHKTSTSPIVKSFNRNEC
heavy: EVLLQQSGPELVKPGASVKIPCKASGYTFTDYNLDWVKQSHGKSLEWIGDINPINGATLYNQKFKGKATLTVDQSSSTAYMELRSLTSEDTAVYYCSIYYGDYDAMDYWGQGASVTVSSAKTTPPSVYPLAPGSAAQTNSMVTLGCLVKGYFPEPVTVTWNSGSLSSGVHTFPAVLQSDLYTLSSSVTVPSSTWPSETVTCNVAHPASSTKVDKKIVPRDCGCKPCICTVPEVSSVFIFPPKPKDVLTITLTPKVTCVVVDISKDDPEVQFSWFVDDVEVHTAQTQPREEQFNSTFRSVSELPIMHQDWLNGKEFKCRVNSAAFPAPIEKTISKTKGRPKAPQVYTIPPPKEQMAKDKVSLTCMITDFFPEDITVEWQWNGQPAENYKNTQPIMDTDGSYFVYSKLNVQKSNWEAGNTFTCSVLHEGLHNHHTEKSLSHSPGK
- TGA Velocity Index at 20 nM [2]: 26.3
- TGA Velocity Index at 20 nM [1]: 13.5

B3: 6B7.c5 (antibody, mouse IgG1, kappa)
light: DIVMTQSHKFMSTSVGDRVSITCKASQDVITAVAWYQQKPGQSPKLLIYWASTRHTGVPVRFTGSGSGTDYTLTIISVQAEDLALYYCQQHYSTPYTFGGGTKLEIKADAAPTVSIFPPSSEQLTSGGASVVCFLNNFYPKDINVKWKIDGSERQNGVLNSWTDQDSKDSTYSMSSTLTLTKDEYERHNSYTCEATHKTSTSPIVKSFNRNEC
heavy: EVLLQQSGPELVKPGSSVKIPCKASGYTFTDYTMDWVKQSHGKSLEWIGDINPSNGGSIYNRKFKGKATLTVDKSSSTAYMELRSLTSEDTAVYYCARMHYNYDGFPYWGQGTLVTVSAAKTTPPSVYPLAPGSAAQTNSMVTLGCLVKGYFPEPVTVTWNSGSLSSGVHTFPAVLQSDLYTLSSSVTVPSSTWPSETVTCNVAHPASSTKVDKKIVPRDCGCKPCICTVPEVSSVFIFPPKPKDVLTITLTPKVTCVVVDISKDDPEVQFSWFVDDVEVHTAQTQPREEQFNSTFRSVSELPIMHQDWLNGKEFKCRVNSAAFPAPIEKTISKTKGRPKAPQVYTIPPPKEQMAKDKVSLTCMITDFFPEDITVEWQWNGQPAENYKNTQPIMDTDGSYFVYSKLNVQKSNWEAGNTFTCSVLHEGLHNHHTEKSLSHSPGK
- TGA Velocity Index at 20 nM [2]: 23.5

B4: TFPI-24 (antibody, human IgG1, lambda)
light: not shown
heavy: EVQLVESGGGSVQPGRSLRLSCAVSGLTIDNYAMQWVRQRPGKGLEWVSGISGNSRSIGYADSVKGRLTISRDNAKNSLYLQIDSLRADDTALYYCAIFLHESDYWGQGTLVTVSSASTKGPSVFPLAPSSKSTSGGTAALGCLVKDYFPEPVTVSWNSGALTSGVHTFPAVLQSSGLYSLSSVVTVPSSSLGTQTYICNVNHKPSNTKVDKKVEPKSCDKTHTCPPCPAPEAAGAPSVFLFPPKPKDTLMISRTPEVTCVVVDVSHEDPEVKFNWYVDGVEVHNAKTKPREEQYNSTYRVVSVLTVLHQDWLNGKEYKCKVSNKALPAPIEKTISKAKGQPREPQVYTLPPSREEMTKNQVSLTCLVKGFYPSDIAVEWESNGQPENNYKTTPPVLDSDGSFFLYSKLTVDKSRWQQGNVFSCSVMHEALHNHYTQKSLSLSPG
- TGA Velocity Index at 20 nM [1]: 23.2
- dilute prothrombin time EC50 [1]: 0.57 nM

B5: TFPI-118 (antibody, human IgG1, lambda)
light: not shown
heavy: EVQLVESGGGLVQPGRSLRLSCAVSGLTIDNYAMQWVRQAPGKGLEWVSGISGNSRSIGYADSVKGRFTISRDNAKNSLYLQMNSLRAEDTALYYCAIFLHESDYWGQGTLVTVSSASTKGPSVFPLAPSSKSTSGGTAALGCLVKDYFPEPVTVSWNSGALTSGVHTFPAVLQSSGLYSLSSVVTVPSSSLGTQTYICNVNHKPSNTKVDKKVEPKSCDKTHTCPPCPAPEAAGAPSVFLFPPKPKDTLMISRTPEVTCVVVDVSHEDPEVKFNWYVDGVEVHNAKTKPREEQYNSTYRVVSVLTVLHQDWLNGKEYKCKVSNKALPAPIEKTISKAKGQPREPQVYTLPPSREEMTKNQVSLTCLVKGFYPSDIAVEWESNGQPENNYKTTPPVLDSDGSFFLYSKLTVDKSRWQQGNVFSCSVMHEALHNHYTQKSLSLSPG
- Dilute PT EC50 [1]: 1.16 nM
- TGA Velocity EC50 [1]: 7.72 nM
- dilute prothrombin time EC50 [1]: 1.16 nM

B6: hz4D8 (antibody, human IgG1, kappa)
light: DIQMTQSPSSLSASVGDRVTITCKASQDVHTAVAWYQQKPGKAPKLLIYWASTRHTGVPSRFSGSGSGTDYTLTISSLQPEDFATYYCQQHYTTPYTFGQGTKLEIKRTVAAPSVFIFPPSDEQLKSGTASVVCLLNNFYPREAKVQWKVDNALQSGNSQESVTEQDSKDSTYSLSSTLTLSKADYEKHKVYACEVTHQGLSSPVTKSFNRGEC
heavy: EVQLVESGGGLVQPGGSLRLSCAASGYTFTDYNLDWVRQAPGKGLEWVADINPINGATLYNQKFKGRFTISRDQAKNSLYLQMNSLRAEDTAVYYCARYYGDYDAMDYWGQGTLVTVSSASTKGPSVFPLAPSSKSTSGGTAALGCLVKDYFPEPVTVSWNSGALTSGVHTFPAVLQSSGLYSLSSVVTVPSSSLGTQTYICNVNHKPSNTKVDKKVEPKSCDKTHTCPPCPAPEAAGAPSVFLFPPKPKDTLMISRTPEVTCVVVDVSHEDPEVKFNWYVDGVEVHNAKTKPREEQYNSTYRVVSVLTVLHQDWLNGKEYKCKVSNKALPAPIEKTISKAKGQPREPQVYTLPPSREEMTKNQVSLTCLVKGFYPSDIAVEWESNGQPENNYKTTPPVLDSDGSFFLYSKLTVDKSRWQQGNVFSCSVMHEALHNHYTQKSLSLSPG
- Dilute PT EC50 [1]: 0.47 nM
- TGA Velocity EC50 [1]: 3.9 nM
- TGA Velocity Index at 20 nM [1]: 15.7
- dilute prothrombin time EC50 [1]: 0.47 nM

B7: 7A4.D9 (antibody, mouse IgG1, kappa)
light: DIVLTQSPASLAVSLGQRATISCRASKSVSTSGYTYMHWYQQKPGQPPKLLIYLASNLESGVPARFSGSGSGTDFTLNIHPVEEEDAAAYYCQHIRELPFTFGSGTKLEIKADAAPTVSIFPPSSEQLTSGGASVVCFLNNFYPKDINVKWKIDGSERQNGVLNSWTDQDSKDSTYSMSSTLTLTKDEYERHNSYTCEATHKTSTSPIVKSFNRNEC
heavy: EVQLQQSGPELVKPGASVKMSCKASGYTFTSYVMHWVKQKPGQGLEWIGYLNPYNDGTKYNEKFKGKASLISDKSSSTVYMELSSLTSEDSAVYYCATTLLYAMDYWGQGSSVTVSSAKTTPPSVYPLAPGSAAQTNSMVTLGCLVKGYFPEPVTVTWNSGSLSSGVHTFPAVLQSDLYTLSSSVTVPSSTWPSETVTCNVAHPASSTKVDKKIVPRDCGCKPCICTVPEVSSVFIFPPKPKDVLTITLTPKVTCVVVDISKDDPEVQFSWFVDDVEVHTAQTQPREEQFNSTFRSVSELPIMHQDWLNGKEFKCRVNSAAFPAPIEKTISKTKGRPKAPQVYTIPPPKEQMAKDKVSLTCMITDFFPEDITVEWQWNGQPAENYKNTQPIMDTDGSYFVYSKLNVQKSNWEAGNTFTCSVLHEGLHNHHTEKSLSHSPGK
- TGA Velocity Index at 20 nM [2]: 23.3
